Measured values as given in the supplement of paper PMC9170038.

Tested on: MS2 coat protein
Assay: apparent KD of MS2 coat protein; designed switch direction (-1 OFF switch, 1 ON switch): 1; higher = weaker reporter binding
How it was run: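 On Illumina chips, designed RNA switches with common flanks were made by stalled E. coli RNA polymerase. Titrations with SNAP-549-labelled MS2 coat protein, doubling from 0.7 or 1.5 nM to 3 µM, were done with no input, with 200 uM small-molecule ligand, or with an oligonucleotide input. Apparent KD is the median per design over clusters, from curve fits of normalised cluster fluorescence.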

[1] = input ligand: microRNA oligo, concentration not stated
[2] = Eterna round: R95, input ligand: FMN 200 uM
[3] = Eterna round: R95, input ligand: microRNA oligo, concentration not stated
[4] = Eterna round: R95, input ligand: none

Sequence | apparent KD of MS2 coat protein [1] [µM] | apparent KD of MS2 coat protein [2] [µM] | apparent KD of MS2 coat protein [3] [µM] | apparent KD of MS2 coat protein [4] [µM] | apparent KD of MS2 coat protein (input ligand: FMN 200 uM) [µM] | apparent KD of MS2 coat protein (input ligand: none) [µM]
GUGGUCAGACAUGAGGAUCACCCAUGUGGAAUAAAUAACACACAGGAUAUGUAAUAUAGGAUAUAACAGAAGGGUGGAUUGGUG (Eterna round: R96, puzzle: Same State NG 3) | 0.297 | – | – | – | – | –
GAGGGAUGAGCGUAGGAUAUAGGAGAAGUGACAUGAGGAUCACCCAUGUGGUAUGAGGGAUGAUUCUAGAAGGACGCGGUAGAAG [JR_SS2_Sub063] (puzzle: Same State 2) | – | 0.149 | 0.399 | 0.373 | – | –
CUGCUCGGGUGAGGAUAUGCCGCCGUUUCGGCUGCAGAAGGUGCUACGUUACAUGAGGAUCACCCAUGUCUCUGUUGUUUCGUG [salish99_SSNG1_r04_966] (Eterna round: R96, puzzle: Same State NG 1) | 0.0607 | – | – | – | 0.108 | 0.076
UUAAUGAUGUAAGGAUAUACAUGAGGAUUUCUCGUAGAAGGUACAAGACAUGAGGAUCACCCAUGUGUCGCUCCGUAGAGCGUA [JL SSNG1 1.09] (Eterna round: R96, puzzle: Same State NG 1) | 0.132 | – | – | – | – | –
AGCUAUCGCGUACGAUAGCUGAAGCAUGUACAUGAGGAUCACCCAUGUCAUGUGCAGGCUUUUUGCUCGUCUUAUUG [JL-shm-2.30 JL mod] (puzzle: Sensor for hsa-mir-208a) | – | 0.0689 | 0.0133 | 0.0751 | – | –
UAAAGCAAGUCAGGAUAUGGGAAAGGAAGUGUACUAGAAGGGACUUGUAGGAACAUGAGGAUCACCCAUGUACCGCGGACUAAA [PowerStrip SSNG 1.7] (Eterna round: R96, puzzle: Same State NG 1) | 0.0426 | – | – | – | 0.0317 | 0.0478
AGCUAUCGCGUACGAUAGCUGAAGCGUGUACAUGAGGAUCACCCAUGUCAUGUGCAGGCUUUUUGCUCGUCUUAUUG [JL-shm-2.31 JL mod] (puzzle: Sensor for hsa-mir-208a) | – | 0.64 | 0.0172 | 0.648 | – | –
AUAUGAGGAGCAGGAUAUGCGGAGAAGAAAGAAGCAGAAGGGCUCAUGGGACAACAUGAGGAUCACCCAUGUUCUCCGCGAUGA [AK SSNG1-V2-3.2] (Eterna round: R96, puzzle: Same State NG 1) | 0.298 | – | – | – | 0.0802 | 0.523
CUGAGCGAUCAAGGAUAUCACGUCGAAUAGACGUGAGAAGGUGAUCCAUACAUGAGGAUCACCCAUGUAUAACAUGAAGCUCAG [SSNG1/8-A1] (Eterna round: R96, puzzle: Same State NG 1) | 0.0216 | – | – | – | 0.794 | 0.404
CUGAGCGAUCAAGGAUAUCACGUCGAAUAGACGUGAGAAGGUGAUCAUAACAUGAGGAUCACCCAUGUAUUACAUGAAGCUCAG [SSNG1/2-A1] (Eterna round: R96, puzzle: Same State NG 1) | 0.536 | – | – | – | 0.231 | 2.24
GUAGCAUACCGAGGAUAUUCAUAUUAUACAUGAGGAUCACCCAUGUAAGGCCGAUUACGGCCUUGGGAGAAGGCGGAAUGCUAC [Xeonanis - 20 Mod21] (Eterna round: R96, puzzle: Same State NG 2) | 0.0682 | – | – | – | 0.0189 | 0.105
AGCUAUUACGAAGGAUAUUGUAACAUGAGGAUCACCCAUGUUUACAUGAUUAAUUGUGAUCACGUCGAGAAGGUUGUACUAACA [SameState NG2 #33] (Eterna round: R96, puzzle: Same State NG 2) | 0.0165 | – | – | – | 0.0175 | 0.019
AUAGUUGCCGAAGGAUAUGAUGAGGAUCACCCAUCAGAAGGUCGGCUAUUGGGUGGAUAUGAGGAUCACCCGUGUUCUUUGGUC (Eterna round: R96, puzzle: Same State NG 1) | 0.0167 | – | – | – | 0.0224 | 0.0229
GUUGAAUUGCAAGGAUAUCUUAGUCAGACGCUAAGAGAAGGUGCUUUACAGUUACAUGAGGAUCACCCAUGUCUUUCUUUUGAU [Jens NG1-01] (Eterna round: R96, puzzle: Same State NG 1) | 0.0202 | – | – | – | 0.0234 | 0.0285
GUGUGUUGCGGGCAGGAUAUGUACUUGAGUACAUGAGGAUCACCCAUGUGCGCCUGUUUCAGGCGACAGAAGGGCCUAUCGCGAC [JL-ss2-3.26 ViennaUCT mod] (puzzle: Same State 2) | – | 0.121 | 0.318 | 1.34 | – | –
UUAAUGAUGAUAGGAUAUACAUGAGGAAUUCUCGUAGAAGGAUCAUGACAUGAGGAUCACCCAUGUAUCGCUCCGUAGAGCGUA [JL SSNG1 1.14] (Eterna round: R96, puzzle: Same State NG 1) | 0.233 | – | – | – | 0.934 | 0.676
GGUCCAGCCUGAGCUGGACUACAGCAUGUACAUGAGGAUCACCCAUGUCAUGUACAUGUUUUUUGUUUGUCUUAAAA [Sensorship 9 - Jieux - Sensor for hsa-mir-208a] (Eterna round: R96, puzzle: Sensor for hsa-mir-208a) | 0.0575 | – | – | – | 0.2 | 0.503
UGCAUACAUGAGGAUCACCCAUGUCAACGUAGCCGAGGAUAUGGAUUGCCGUGAGGCGUGCCAGAAGGCGGAGAGG [Same State 1 - Mod of Vinnie Teenbexe] (puzzle: Same State 1) | – | 0.0291 | 0.0425 | 0.059 | – | –
GCCAUCCAGUGAGGAUAUGGCACCGAAACGGUGCCAGAAGGCAUGUCAAUUGACAUGAGGAUCACCCAUGUAUUAUGGAUGGCA [Mat - Same State NG 1 - JL mod - D85] (Eterna round: R96, puzzle: Same State NG 1) | 0.694 | – | – | – | 0.102 | 0.695
UUGAAGAAUUAAGGAUAUCGAGUCGUCUAAUUAAACAUGAGGAUCACCCAUGUGGGUUGCGGUAUCGAGAAGGUAAAUUACUAG [JL JR Sub099 mod 3] (Eterna round: R96, puzzle: Same State NG 2) | 0.0228 | – | – | – | 0.0252 | 0.037
CAGCGCUGUUGAGAGGAUAUGCGGUGAUGGACAUGAGGAUCACCCAUGUUAGCGACAGCAUUACGGCAGAAGGCUUCACAGCUGC [Soteed Omei mod 17] (puzzle: Same State 2) | – | – | 0.0393 | – | – | –
GCUCGCACGAUGACCCACAUGAGGAUCACCCAUGUGUGUGGGUAGGAUAUCUAGAUUAAGGAUGUAGAGAAGGGCCGAGCGAGC [SameState NG3 #23] (Eterna round: R96, puzzle: Same State NG 3) | 0.429 | – | – | – | 0.576 | 0.6
GUUACAUGAGGAUCACCCAUGUAUGUGUGGGAGUAAGUGUCUUAGGAUAUCUAUUAUUUAAUGUAAGAGAAGGAAGAUUGUUGU [JMF's solution 24] (Eterna round: R96, puzzle: Same State NG 3) | 0.106 | – | – | – | – | –
GCUACCAUUGAAGCCAACAUGAGGAUCACCCAUGUAUGUUGGUAGGAUAUCGUUUGCAAAGCAAACGAGAAGGGCUAAGGUAGC [Mat - Same State NG 3 - JL Mod - D79] (Eterna round: R96, puzzle: Same State NG 3) | 0.0421 | – | – | – | 0.0835 | 0.0744
GGGCCAGCUUGUGCUGGGCCUUCGCAUGCACAUGAGGAUCACCCAUGUCGUGUACAUGCUUUUUGCUCGUCUUUAAA [Photon Torp-11] (puzzle: Sensor for hsa-mir-208a) | – | 0.0396 | 0.014 | 0.0408 | – | –
GGUAGGUUACUACCAACACAUGAGGAUCACCCAUGUUAUGGGAAGGAUAUGGUACCUAUUUGGUACCAGAAGGUCCAGUUAAUU [Fiskers NG3ss - 16] (Eterna round: R96, puzzle: Same State NG 3) | 0.206 | – | – | – | 0.0776 | 0.449
AGUCUACGGAAACGUAGACAGUGGAGCGUACAUGAGGAUCACCCAUGUCAUGUGAGAGCUACUUGUUCGUCUUGAGC [SENSOR #5] (puzzle: Sensor for hsa-mir-208a) | – | 0.0264 | 0.0185 | 0.0268 | – | –
AUGUUUAAUGCAGGAUAUGAUUAACAUGAGGAUCACCCAUGUGGUGUUGUGAGUAAGGAGAGUGAUCAGAAGGGCAUUUUUUUU [JMF's solution 101] (Eterna round: R96, puzzle: Same State NG 2) | 0.516 | – | – | – | – | –
